Here are results for three molecules from patent US12110325B2, “TM4SF5-targeting humanized antibody and use thereof” (KOREA RESEARCH INSTITUTE OF BIOSCIENCE AND BIOTECHNOLOGY, priority 2022, dated 2024).

Data set [1] has as its system SNU449T7 cells. The data set is described as follows: Combination treatment in SNU449T7 xenograft mouse model. In kind it is in vivo. The conditions noted are these: for inhibited tumor growth relative to the control: Ab27 270, sorafenib 1,200, doxorubicin 20 μg/mouse/dose i.p. twice per week, 6 times in total, alone or combined. Here is the method:
For combination treatment, SNU449T7 (1×10^6) cells were subcutaneously injected into the mice. When volumes reached about 100 mm^3, the tumor-bearing mice were randomized into control and treatment groups (n=6 per group). Ab27 (270 μg/mouse), sorafenib (1,200 μg/mouse), or doxorubicin (20 μg/mouse) was intraperitoneally (i.p.) injected twice per week (6 times in total). For the combination treatment group, Ab27 and sorafenib or doxorubicin were intraperitoneally (i.p.) injected at 6-hour intervals. Sorafenib was dissolved in DMSO/Cremophor EL/PBS (1:1:8).
(§1) Body weight and tumor volume were measured before injection of the antibody or drug. Tumor volumes were calculated using the formula width^2×length/2). Tumor masses were lysed as described in the literature for immunoblot analysis (J Clin Invest, 2008. 118 (4): pp. 1354-66) or tumor masses were fixed in 10% formalin and embedded in paraffin.
SNU449T7 (1×10^6) cells were mixed with Matrigel and subcutaneously injected into the back, and then Ab27 (270 μg/mouse/dose); sorafenib (1,200 μg/mouse/dose); doxorubicin (20 μg/mouse/dose); a combination of Ab27 (270 μg/mouse/dose) and sorafenib (1,200 μg/mouse/dose) or a combination of doxorubicin (20 μg/mouse/dose); or saline (control) were intraperitoneally injected twice per week (6 times in total) into nude mice (n=6 per group) bearing SNU449T7 xenografts.

The subject of data set [2] is sorafenib-resistant SNU449T7 cells. The data set is described as follows: Sorafenib-resistant SNU449T7 cell xenograft model. In kind it is in vivo, mouse. Here is the method:
SNU449T7 cells were treated with sorafenib (1 μM to 10 μM) for 2 weeks, and the surviving cells (sorafenib-resistant SNU449T7; 1×10^6 cells) were mixed with Matrigel on ice and then injected subcutaneously into the backs of the mice. After 11 days, when tumor volumes reached about 100 mm^3, the tumor-bearing mice were randomized into control and treatment groups (n=7 per group). Ab27 (250 μg/mouse) or sorafenib (400 μg/mouse) was intraperitoneally (i.p.) injected at 2- or 3-day intervals for 2 or 3 weeks (8 times in total).
as §1
The antitumor activity of Ab27 was evaluated in a sorafenib-resistant SNU449T7 cell xenograft model. TM4SF5-overexpressing SNU449T7 cells were treated with sorafenib (1 μM to 10 μM; 3 culture medium changes per week) for 3 weeks, and the surviving sorafenib-resistant cells (1×10^6) were mixed with Matrigel and then subcutaneously injected into the flanks of the nude mice. Ab27 (250 μg/mouse) or sorafenib (400 μg/mouse) was injected at 2- or 3-day intervals (8 times in total).

The test system of data set [3] is SNU-398 cells. The data set is described as follows: SNU-398 liver cancer xenograft (endogenous TM4SF5). In kind it is in vivo. The note with it: Ab27 300, cetuximab 300 or sorafenib 600 μg/mouse/dose. Here is the method:
as §1
(§2) Formalin-fixed and paraffin-embedded 6-μm-thick tissue sections from xenograft tumors were processed for immunohistochemistry analysis as per the standard protocol. Sections were stained with anti-Ki67 antibody (SP6; Abcam) using the peroxidase technique. The proliferative index (%) was determined by calculating the number of Ki67^+ cells relative to the total number of cells, which consisted of at least 1,000 cells per field. Five randomly selected fields from tumor sections per mouse were analyzed using ImageJ software.

The target of data set [4] is T1, TM4SF5 (Homo sapiens, UniProt O14894).
T1 construct: expressed in transfected cells; SNU449Cp (TM4SF5-low control)
T1 sequence (O14894 1-197): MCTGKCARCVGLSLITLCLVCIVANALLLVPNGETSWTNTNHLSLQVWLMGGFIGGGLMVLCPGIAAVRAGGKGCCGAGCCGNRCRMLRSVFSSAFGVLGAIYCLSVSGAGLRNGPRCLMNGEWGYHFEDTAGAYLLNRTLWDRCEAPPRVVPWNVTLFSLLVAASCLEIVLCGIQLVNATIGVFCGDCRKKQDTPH
The data set is described as follows: Immunocytochemistry of SNU449Cp and SNU449Tp cells. In kind it is cell-based. The conditions noted are these: SNU449Tp versus SNU449Cp; Ab27-hz9 with a stronger level. How it is done: SNU-449Cp, SNU-449Tp, and HepG2 and HT-29 cells that had been transiently transfected with TM4SF5-specific siRNA were plated on coverslips and incubated for 48 hours. The cells were then fixed for 20 minutes in methanol and permeabilized with acetone for 1 minute. After blocking in 1% normal horse serum, the cells were incubated with Ab27 or Ab27-hz9 ([…]), followed by a corresponding secondary antibody conjugated to FITC. The cells were counterstained with 4,6-diamidino-2-phenylindole (DAPI; Sigma) to visualize nuclei. Immunofluorescent images were acquired under a confocal microscope (LSM 510 META, Carl Zeiss, Jena, Germany).

Data set [5] concerns the target T1, TM4SF5. The data set is described as follows: Internalization analysis of SNU449Tp cells by flow cytometry. The note with it: Ab27 0.3 μg/mL, Ab27-hz9 0.2 μg/mL. Type of data set: cell-based. Here is the method:
Cell-surface binding and subsequent internalization of Ab27 and Ab27-hz9 were analyzed using flow cytometry. Briefly, cells were incubated with Ab27 or Ab27-hz9 at 4° C. for 45 minutes, washed to remove unbound antibodies, and then either warmed to 37° C. to allow internalization or maintained at 4° C. Cells were transferred to ice-cold buffer to stop the occurrence of internalization and stained with FITC-conjugated anti-human IgG. PI^− cells were analyzed by flow cytometry. The relative levels of Ab27 or Ab27-hz9 bound to the cell surface were calculated as the shift in the fluorescence signal of the antibody occupancy relative to that detected at the beginning of the internalization period.
For the internalization analysis of SNU449Tp cells with Ab27 and Ab27-hz9, Ab27 (0.3 μg/mL) and Ab27-hz9 (0.2 μg/mL) were used to maintain a similar extent of initial antibody binding to TM4SF5.
A general note: A flow cytometer gives signals particle by particle.

Data set [6] relates to SNU449T7 cells. The data set is described as follows: SNU449T7 liver cancer xenograft, Ab27-hz9 versus Ab27 and cetuximab. In kind it is in vivo, mouse. Here is the method: SNU449T7 (1×10^7) cells were subcutaneously injected into the flanks of mice. When volumes reached about 100 mm^3, the tumor-bearing mice were randomized into control and treatment groups (n=6 per group). […] Normal human IgG was injected as a negative control.
as §1, §2
The antitumor efficacy of Ab27-hz9 was evaluated in the SNU449T7 xenograft model. SNU449T7 cells (3×10^6) were subcutaneously injected into the flanks of mice.

Data set [7] has as its system endogenous TM4SF5-expressing tumors. Kind of data set: In vivo tumor targeting, DyLight 755-labeled antibody, SNU-398 xenograft. The note with it: DyLight 755 label, tail vein, 96 hours; control IgG mostly in the liver. On the set-up: species or system mouse. How it is done: (§3) Ab27, Ab27-hz9, and normal human IgG were conjugated with DyLight 755 and purified using a DyLight 755 Antibody Labeling Kit (Thermo Scientific) according to the manufacturer's instructions. When the size of the tumor formed by SNU449T7 or SNU-398 cell reached about 100 mm^3, 70 μg of dye-labeled antibody was injected into the tail vein of nude mice. The distribution profiles of the antibody were quantified by in vivo fluorescence using IVIS imaging system at 0, 24, 48, 72, and 96 hours after antibody injection. The tumor was removed at 96 hours after injection to determine the distribution of the DyLight755-labeled antibody in tumor tissues.
Additionally, in vivo tumor targeting of Ab27 and Ab27-hz9 were examined using a SNU-398 xenograft mouse model. To confirm in vivo tumor targeting of Ab27 and Ab27-hz9 in endogenous TM4SF5-expressing liver cancer xenografts, SNU-398 cells were subcutaneously injected into the flanks of the nude mice so as to prepare mice bearing tumors. Ab27, Ab27-hz9, and control human IgG were labeled with DyLight 755 were injected into the tail veil of tumor-bearing mice, and fluorescence was measured after 96 hours.

In data set [8] the target is T1, TM4SF5. Kind of data set: Flow cytometry of SNU449Cp and SNU449Tp cells. In kind it is cell-based. Here is the method:
To analyze antibody binding to TM4SF5, flow cytometry was performed using SNU449Cp, SNU449Tp, HEK293E, and CT26 cells. HCT-116, SNU-398, HT-29, C8161, and SNU-638 cells that had been transiently transfected with either a TM4SF5-specific siRNA or a negative control siRNA were also analyzed. Cells (2×10^5) were incubated with Ab27 or Ab27-hz9 at 0.03 μg to 0.3 μg at 4° C. for 45 minutes in 100 μL PBS containing 1% BSA. The cells were washed twice with 1% BSA/PBS, followed by a 30-minute incubation with fluorescein isothiocyanate (FITC)-conjugated anti-human IgG (Fc-specific; Pierce, Rockford, Ill., USA). Viable propidium iodide (PI)^− cells were analyzed for antibody binding using FACSCalibur (BD Immunocytometry System, San Jose, Calif., USA). To generate hemagglutinin (HA)-tagged mouse TM4SF5-expression vector, mouse TM4SF5 cDNA (Accession No. NM_029360.3) was subcloned into pCMV-HA-N vector (Clonetech, Mountain View, Calif.). PC3 cells transiently transfected with HA-tagged mouse TM4SF5-expression vector were incubated with Ab27 and anti-HA, and then analyzed by flow cytometry.

Data set [9] has as its system SNU449Tp cell-derived tumors. Kind of data set: In vivo tumor targeting, DyLight 755-labeled antibody, SNU449T7 xenograft. Further details: species or system mouse. The note with it: DyLight 755 label, 96 hours after injection; control IgG mostly in the liver. How it is done: as §3
In order to validate the tumor-targeting ability of anti-TM4SF5 antibodies, the distributions of Ab27 and Ab27-hz9 after injection into SNU449Tp xenograft model were determined. SNU449T7 cells were subcutaneously injected into the flanks of the nude mice so as to prepare mice bearing tumors. Ab27, Ab27-hz9, and control human IgG were labeled with a fluorescent dye (DyLight 755) and […] injected into nude mice bearing SNU449Tp cell-derived tumors. After 96 hours, the distribution of the dye-labeled antibody was quantified by measuring the total photon flux of the fluorescence.

For the molecule `COc1cccc2c1C(=O)c1c(O)c3c(c(O)c1C2=O)C[C@@](O)(C(=O)CO)C[C@@H]3O[C@H]1C[C@H](N)[C@H](O)[C@H](C)O1` [doxorubicin], the “inhibited tumor growth relative to the control” value in data set [1] worked out at 26%.

Take `CNC(=O)c1cc(Oc2ccc(NC(=O)Nc3ccc(Cl)c(C(F)(F)F)c3)cc2)ccn1` [sorafenib]: the “immunoblot of xenograft tumor tissues: phosphorylation of FAK, c-Src, p27Kip1, STAT3 and expression of BMI1” value in data set [2] (Ab27 250 μg/mouse or sorafenib 400 μg/mouse) is “relatively moderately decreased the phosphorylation of FAK, c-Src, p27^KiP1, and STAT3”. Moreover, in data set [2] (sorafenib 400 μg/mouse/dose, 8 times in total), the “tumor growth (in words)” value is given as “did not remarkably decrease tumor growth”. Besides, the “Ki67 proliferation index of tumor sections” value in data set [3] is recorded as “significantly decreased”. The “inhibited tumor growth (tumor volume)” value in [3] (6 times in total, normal human IgG control) is 51%. For the same molecule, the “inhibited tumor growth relative to the control” value in [1] is recorded as 42%. In addition, the “phosphorylation of STAT3 in tumor lysates” value in data set [1] (sorafenib 1,200 μg/mouse/dose) is reported as “abolished the phosphorylation of STAT3”.

B1: Ab27-hz9: humanized monoclonal antibody of Ab27; VH SEQ ID NO: 7, VL SEQ ID NO: 8; IGHV1-2 and IGKV3-20 frameworks (antibody, V domains shown)
VH: QVQLVQSGAEVKKPGASVKVSCKASGYTFTDYEMHWVRQAPGQGLEWMGAIDPETGGTAYNQKFKGRVTMTADKSISTAYMELSRLRSDDTAVYYCARPYLGYWGQGTLVTVSS
VL: EIVLTQSPGTLSLSPGERATLSCRSSQSLVHSNGNTYLHWYQQKPGQAPRLLIYKVSNRFSGIPDRFSGSGSGTDFTLTISRLEPEDFAVYYCFQGSHIPLTFGQGTKVEIK
modifications: VH; VL
notes: humanized monoclonal antibody of Ab27; IGHV1-2 and IGKV3-20 frameworks
With B1, the “immunofluorescence staining of membrane edges” value in data set [4] is given as “stained the membrane edges of SNU449Tp cells, but not those of SNU449Cp cells”. Also, the “residual level of cell surface-bound antibody” value in data set [5] is on record as “significantly reduced”. Besides, the “level of proliferative Ki67+ cells in tumor sections versus control mice” value in [6] (300 μg/mouse/dose) was “significantly lower”. The “inhibited tumor growth (tumor volume)” value in data set [6] (300 μg/mouse/dose i.p. 3 or 4 times per week, 12 times in total, normal human IgG control) is recorded as “about 66%”. For the same molecule, the body weight entry in [6] (300 μg/mouse/dose, 12 times in total) is given as “without affecting body weight”. The “distribution of dye-labeled antibody (fluorescence)” value in data set [7] was “substantially localized in endogenous TM4SF5-expressing tumors”. Further, the “binding to SNU449Tp (high-TM4SF5) versus SNU449Cp (TM4SF5-low) cells” value in data set [8] is given as “bound more efficiently to SNU449Tp cells than to SNU449Cp cells”. Also, the “distribution of dye-labeled antibody (total photon flux)” value in [9] was “predominantly localized to the tumors”.
